Paper PMC3725505

How the values were obtained:
[1] = target: Kelch domain of human Keap1 (residues 321-609) (human) (UniProt Q14145); assay: ITC
[2] = target: Keap1 (Kelch domain) Kelch domain, 321-609 (UniProt Q14145); assay: isothermal titration calorimetry; details: reference: unphosphorylated WTX 20-mer peptide; sites S286

Sequence of Kelch domain of human Keap1 (residues 321-609) (human) (Q14145 321-609): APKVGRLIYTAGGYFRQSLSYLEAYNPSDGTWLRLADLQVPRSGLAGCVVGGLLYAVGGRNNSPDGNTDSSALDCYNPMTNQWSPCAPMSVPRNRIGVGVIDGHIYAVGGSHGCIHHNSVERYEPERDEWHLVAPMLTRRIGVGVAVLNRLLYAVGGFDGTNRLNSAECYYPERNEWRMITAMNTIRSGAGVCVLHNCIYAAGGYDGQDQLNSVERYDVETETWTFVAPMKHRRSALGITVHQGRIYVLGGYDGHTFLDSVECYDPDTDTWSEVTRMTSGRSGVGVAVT

Row | Substance | Kd [1] | dH [1] | stoichiometry N [1] | KD [2]
1 | FAC1 peptide (20-mer) | 1100 nM | -15.1 kcal/mol |  | 
2 | PALB2 peptide (20-mer) |  | -19.3 kcal/mol | 1.01 | 
3 | PGAM5 peptide (20-mer) | 230 nM | -19.1 kcal/mol | 1.07 | 
4 | WTX Kelch-binding region (from UniProt Q5JTC6) WTX pS286 20-mer peptide |  |  |  | weaker; reference 0.25 ± 0.02
5 | WTX peptide (20-mer, unphosphorylated) | 250 nM | -18 kcal/mol | 1.04 | 
